US20150344570A1 (published 2015)
Values belong to the binder of their own block, whether it stands above or below them.

Experiments:
FcγRIIa R [1] = molecular target: T1, FcγRIIa R (human, UniProt P12318 34-217); test: SPR (Biacore), antibody captured via antigen peptide, FcγR as analyte
T1 construct: extracellular domain; Soluble His-tagged extracellular domain expressed in FreeStyle293 cells; analyte in Biacore; also called FcgRIIa R; FcgRIIaR; not shown: His tag attached to the C terminus
T1 sequence (looked up): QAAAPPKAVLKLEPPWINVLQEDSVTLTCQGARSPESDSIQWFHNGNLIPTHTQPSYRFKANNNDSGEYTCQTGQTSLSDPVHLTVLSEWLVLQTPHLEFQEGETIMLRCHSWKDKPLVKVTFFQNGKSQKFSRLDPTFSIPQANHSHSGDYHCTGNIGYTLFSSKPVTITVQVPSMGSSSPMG
Protocol: (§1) The heterodimerized antibodies He Abs in which one of the H chains was introduced with an alteration were assayed for their binding activities to each activating FcγR and inhibitory FcγR according to the method described in Example 4. […] The activating FcγRs in FIGS. 26, 27, 28, and 29 are FcγRIa, FcγRIIa (R), FcγRIIa (H), and FcγRIIIa, respectively.
(§2) Analysis of interaction between objective antibody and the FcγR was carried out using Biacore T100 (GE Healthcare). HBS-EP+ (GE Healthcare) was used as the running buffer, and the measurement temperature was set to 25° C. Chips produced by immobilizing the antigen peptide by the amine coupling method to a Series S Sencor Chip CM5 (GE Healthcare), or alternatively, chips produced by allowing preliminarily biotinylated antigen peptides to interact with and immobilize onto a Series S Sensor Chip SA (certified) (GE Healthcare) were used. Antibodies of interest were captured onto an antigen peptide-immobilized chip, and allowed to interact to each FcγR diluted with running buffer. To regenerate and repeatedly use the chip, the antibodies captured on the chip were washed off by reacting 10 mM glycine-HCl, pH 1.5.

FcγRIIb = molecular target: T2, FcγRIIb (human, UniProt P31994 43-217); test: as above
T2 construct: extracellular domain; Soluble His-tagged extracellular domain expressed in FreeStyle293 cells; analyte in Biacore; also called FcgRIIb; 2b; not shown: His tag attached to the C terminus
T2 sequence (looked up): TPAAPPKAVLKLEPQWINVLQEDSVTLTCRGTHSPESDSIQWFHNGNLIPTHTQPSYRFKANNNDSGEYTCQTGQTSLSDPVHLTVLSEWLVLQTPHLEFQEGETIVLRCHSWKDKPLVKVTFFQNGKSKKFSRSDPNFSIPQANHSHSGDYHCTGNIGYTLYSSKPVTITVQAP
Protocol: as §1, §2

FcγRIIa R [2] = molecular target: T1, FcγRIIa R; test: ratio of He/Con_2aR to He/Con_2b (binding to FcγRIIb as reference); SPR

B1: GpH7-A5/GpH7-B3 variant N325_11K/GpL16-k0 (antibody, human IgG1, kappa)
heavy 1: not shown
heavy 2: not shown
light: DIVMTQSPLSLPVTPGEPASISCQASESLVHSNRNTYLHWYLQKPGQSPQLLIYKVSNRFSGVPDRFSGSGSGTDFTLKISRVEAEDVGVYYCSQNTHVPPTFGQGTKVEIERTVAAPSVFIFPPSDEQLKSGTASVVCLLNNFYPREAKVQWKVDNALQSGNSQESVTEQDSKDSTYSLSSTLTLSKADYEKHKVYACEVTHQGLSSPVTKSFNRGEC
notes: Heterodimerized anti-glypican-3 IgG1 antibody; alteration only in the GpH7-B3 H chain; position in EU numbering; also called He Ab
He/Con_2aR (IIaR binding relative to GpH7-A5/GpH7-B3/GpL16-k0) (FcγRIIa R [1]): 16.2 % of control (control = 100) | He/Con_2b (IIb binding relative to GpH7-A5/GpH7-B3/GpL16-k0) (FcγRIIb): 10.4 % of control (control = 100) | He_2aR/2b (IIaR/IIb) (FcγRIIa R [2]): 1.57

B2: GpH7-A5/GpH7-B3 variant N325_12R/GpL16-k0 (antibody, human IgG1, kappa)
heavy 1: not shown
heavy 2: not shown
light: DIVMTQSPLSLPVTPGEPASISCQASESLVHSNRNTYLHWYLQKPGQSPQLLIYKVSNRFSGVPDRFSGSGSGTDFTLKISRVEAEDVGVYYCSQNTHVPPTFGQGTKVEIERTVAAPSVFIFPPSDEQLKSGTASVVCLLNNFYPREAKVQWKVDNALQSGNSQESVTEQDSKDSTYSLSSTLTLSKADYEKHKVYACEVTHQGLSSPVTKSFNRGEC
notes: as for B1
He/Con_2aR (IIaR binding relative to GpH7-A5/GpH7-B3/GpL16-k0) (FcγRIIa R [1]): 26.1 % of control (control = 100) | He/Con_2b (IIb binding relative to GpH7-A5/GpH7-B3/GpL16-k0) (FcγRIIb): 19.1 % of control (control = 100) | He_2aR/2b (IIaR/IIb) (FcγRIIa R [2]): 1.37

B3: GpH7-A5/GpH7-B3 variant N325_16H/GpL16-k0 (antibody, human IgG1, kappa)
heavy 1: not shown
heavy 2: not shown
light: DIVMTQSPLSLPVTPGEPASISCQASESLVHSNRNTYLHWYLQKPGQSPQLLIYKVSNRFSGVPDRFSGSGSGTDFTLKISRVEAEDVGVYYCSQNTHVPPTFGQGTKVEIERTVAAPSVFIFPPSDEQLKSGTASVVCLLNNFYPREAKVQWKVDNALQSGNSQESVTEQDSKDSTYSLSSTLTLSKADYEKHKVYACEVTHQGLSSPVTKSFNRGEC
notes: as for B1
He/Con_2aR (IIaR binding relative to GpH7-A5/GpH7-B3/GpL16-k0) (FcγRIIa R [1]): 89 % of control (control = 100) | He/Con_2b (IIb binding relative to GpH7-A5/GpH7-B3/GpL16-k0) (FcγRIIb): 70.1 % of control (control = 100) | He_2aR/2b (IIaR/IIb) (FcγRIIa R [2]): 1.27

B4: GpH7-A5/GpH7-B3 variant N325_19Q/GpL16-k0 (antibody, human IgG1, kappa)
heavy 1: not shown
heavy 2: not shown
light: DIVMTQSPLSLPVTPGEPASISCQASESLVHSNRNTYLHWYLQKPGQSPQLLIYKVSNRFSGVPDRFSGSGSGTDFTLKISRVEAEDVGVYYCSQNTHVPPTFGQGTKVEIERTVAAPSVFIFPPSDEQLKSGTASVVCLLNNFYPREAKVQWKVDNALQSGNSQESVTEQDSKDSTYSLSSTLTLSKADYEKHKVYACEVTHQGLSSPVTKSFNRGEC
notes: as for B1
He/Con_2aR (IIaR binding relative to GpH7-A5/GpH7-B3/GpL16-k0) (FcγRIIa R [1]): 92.1 % of control (control = 100) | He/Con_2b (IIb binding relative to GpH7-A5/GpH7-B3/GpL16-k0) (FcγRIIb): 69.1 % of control (control = 100) | He_2aR/2b (IIaR/IIb) (FcγRIIa R [2]): 1.33

Continued, values first:

He/Con_2aR (IIaR binding relative to GpH7-A5/GpH7-B3/GpL16-k0) (FcγRIIa R [1]): 58.9 % of control (control = 100) | He/Con_2b (IIb binding relative to GpH7-A5/GpH7-B3/GpL16-k0) (FcγRIIb): 40.5 % of control (control = 100) | He_2aR/2b (IIaR/IIb) (FcγRIIa R [2]): 1.45
B5: GpH7-A5/GpH7-B3 variant P329_02A/GpL16-k0 (antibody, human IgG1, kappa)
heavy 1: not shown
heavy 2: not shown
light: DIVMTQSPLSLPVTPGEPASISCQASESLVHSNRNTYLHWYLQKPGQSPQLLIYKVSNRFSGVPDRFSGSGSGTDFTLKISRVEAEDVGVYYCSQNTHVPPTFGQGTKVEIERTVAAPSVFIFPPSDEQLKSGTASVVCLLNNFYPREAKVQWKVDNALQSGNSQESVTEQDSKDSTYSLSSTLTLSKADYEKHKVYACEVTHQGLSSPVTKSFNRGEC
notes: as for B1

He/Con_2aR (IIaR binding relative to GpH7-A5/GpH7-B3/GpL16-k0) (FcγRIIa R [1]): 53.8 % of control (control = 100) | He/Con_2b (IIb binding relative to GpH7-A5/GpH7-B3/GpL16-k0) (FcγRIIb): 38.5 % of control (control = 100) | He_2aR/2b (IIaR/IIb) (FcγRIIa R [2]): 1.4
B6: GpH7-A5/GpH7-B3 variant P329_03V/GpL16-k0 (antibody, human IgG1, kappa)
heavy 1: not shown
heavy 2: not shown
light: DIVMTQSPLSLPVTPGEPASISCQASESLVHSNRNTYLHWYLQKPGQSPQLLIYKVSNRFSGVPDRFSGSGSGTDFTLKISRVEAEDVGVYYCSQNTHVPPTFGQGTKVEIERTVAAPSVFIFPPSDEQLKSGTASVVCLLNNFYPREAKVQWKVDNALQSGNSQESVTEQDSKDSTYSLSSTLTLSKADYEKHKVYACEVTHQGLSSPVTKSFNRGEC
notes: as for B1

He/Con_2aR (IIaR binding relative to GpH7-A5/GpH7-B3/GpL16-k0) (FcγRIIa R [1]): 44.7 % of control (control = 100) | He/Con_2b (IIb binding relative to GpH7-A5/GpH7-B3/GpL16-k0) (FcγRIIb): 32.2 % of control (control = 100) | He_2aR/2b (IIaR/IIb) (FcγRIIa R [2]): 1.39
B7: GpH7-A5/GpH7-B3 variant P329_04F/GpL16-k0 (antibody, human IgG1, kappa)
heavy 1: not shown
heavy 2: not shown
light: DIVMTQSPLSLPVTPGEPASISCQASESLVHSNRNTYLHWYLQKPGQSPQLLIYKVSNRFSGVPDRFSGSGSGTDFTLKISRVEAEDVGVYYCSQNTHVPPTFGQGTKVEIERTVAAPSVFIFPPSDEQLKSGTASVVCLLNNFYPREAKVQWKVDNALQSGNSQESVTEQDSKDSTYSLSSTLTLSKADYEKHKVYACEVTHQGLSSPVTKSFNRGEC
notes: as for B1
